In the nanobody polyreactivity screen of Harvey et al. (2022):

Experiment: yeast display, Sf9 membrane polyspecificity reagent, FACS + sequencing; frameworks hold sequencing errors
Summary of the method: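 In a synthetic yeast display library (Saccharomyces cerevisiae BJ5465), nanobody expression was induced with galactose for 36–48 hours. FACS gates were set low and high (top ~1%) using anti-HA fluorescence for expression and streptavidin fluorescence for binding of the Sf9 membrane reagent. Each polyreactivity label is drawn from the gate of origin.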

Row | Sequence | polyreactivity (PSR sort gate)
1 | QVQLVESGGGLVQAGGSLRLICAASGITFYIYAMGWYRQAPGKERELVATISWSDGRTYYADSVKGRFTISRDNAKNTVYLQMNSLKPEDTAVYYCAADWWYYQFDYEYWGQGTQVTVSS | low polyreactivity
2 | QVQLQESGGGLVQAGGSLRRSCAATGSIFYRLKMGWHRQATGKERELVATIDPGSNTYYADSVKGSFTMSRDNAKNTVYPQMYSLKPEDTAVYYCAVSAHWTIHYYYWGQGTQVTVSS | high polyreactivity
3 | QVQLVESGGGLVQAGGSLRLSCADSGSTFSYNAMGWYRQAPGKERELVATITYSGTSTHYADSVKGRFTISRDNAKNTVYLQMNSLKPEDTAVYYCNAYSKGWGLPDDYWGQGTLVTVSS | low polyreactivity
4 | QVQLVESGGGLVQAGGSLRLSCAASGITFRYYAMGWYRQAPGKERELVAAISIRGRTYYADSVKGRFTISRDNAKNTVYLQMNSLKPEDTAVYYCAAVKRVVAFDYWGQGTQVTVSS | low polyreactivity
5 | QVQLVESGGGLVQAGGSLRLSCAASGRTFTIYAMGWYRQAPGKEREFVASITGSDGSTYYADSVKGRFTISRDNAKNTVYLQMNSLKPEDTAVYYCAAATSSAYDYWGQGTQVTVSS | low polyreactivity
6 | QVQLVESGGGLVQAGGSLRLSCAASGNIFRYYTMGWYRQAPGKERELVATISYADSVKGRFTISRDNAKNTVYLQMNSLKPEDTAVYYCKADFAPWDKQDYPYDYDYWGQGTQVTVSS | low polyreactivity
7 | QVQLVESGGGLVQAGGSLRLSCAASGNTLRYNVMGWYRQAPGKERELVAAISGGGSTSYTDSVKGRFTISRDNAKNTVYLQMNSLKPEDTAVYYCAKRSFVGGRGRDSDYWGQGTQVTVSS | low polyreactivity
8 | QVQLVDSGGGLVQAAGSLRLSCAASGRIFYYNAKGCYRQAPVKERELVAAITRSGGSTYYADSVKGRFTSSRDNAKHTVYLQMNSLKPEDTAVYYCAKPDRTGWLDGDYWGQGTQVTVSS | low polyreactivity
9 | QVQLVESGGGLVQAGGSLRLSCAASGSTFDYNAMGWYRQAPGKERELVAGISGGSSTNYADSVKGRFTISRDNAKNTVYLQMNSLKPEDTAVYYCNAQRLPLRYEMDYWGQGTQVTVSS | low polyreactivity
10 | QVQLVESGGGLVQAGGSLRLSCAASASIFADNTMGWYRQAPGKERELVAAITSSGRTYYADSVKGRFTISLDNAKNTVYLQLNSLKPEDTAVYYCAAVIYFHDYSPYYYWGQGTQVTVSS | high polyreactivity
11 | QDQLVESGGGLVQAGGSLRLSCAASGSTFGVNAMGWYRQAPGKERELVAIITSTTYSDSVKGRFTISRDNAKNTVYLQMNSLKPEDTAVYYSAADSLLVLFDYWGQGTQVTVSS | low polyreactivity
12 | QVHLVDSGGGLVQAGGSLRLSCAASGRTFYSYAMGWYRQAPGKERELVAAINSGGDTYYADSVKGRFTISRDNAKNSVYLQMNSLKPEDTAVYYCAADYYWEMDSWGQGTQVTVSS | low polyreactivity
13 | QVQLVESGGGLVQAGGSLRLSCAASGFTLRRYAMGWYRQAPGKERELVATITSGGTTDYADSVKGRFTISRDNAKNTVYLQMNSLKPEDTAVYYCAAYRRGAYYYWGQGTQVTVSS | high polyreactivity
14 | QVQLVESGGGLVQAGGSLRLSCAASGSISKINAMGWYRQAPGKERELVAAINTGDSTYYADSVKGRFTISRDNEKNTVYLQMNSLKPEDTAVYYCAAEGSPTGYDYWGQGTQVTVSS | low polyreactivity
15 | QVQLVESGGGLVQAGGSLRLSCAASGRIFGGYAMGWYRQAPGKERELVAVITDGGSTNYADSVKRRFTISRDNAKNTVYLQMNSLKPEDTAVYYCAADSDGDEPPYDYWGQGTQVTVSS | low polyreactivity
16 | QVQLVESGGGLVQAGGSLRLSCAASGSTFYTNAMGWYRQAPGKERELVAAINRSGGRTYYADSVKGRFTISRDNAKNTVYLQMISLKPEDTAVYYCAARYPLRISTDTARDYYWGQGTQVTVSS | low polyreactivity
17 | QVQLVESGGGLVQAGGSLRLSCAASGYILQINAMGWYRQAPGKERELVAAISISGGNTYYADSVKGRFTISRDNAKNTVYLQMNSLKPEDTAVYYCNAGGPLQPYDYWGQGTQVTVSS | low polyreactivity
18 | QVQLVESGGGLVQAGGSLRLSCAASGGIFYVNAMGWYRQAPGKERELVAAITSDGVSTYYADSVKGRFTISRDNAKNTVYLQMNSLKPEDTAVYYCAADNGGAGYYYGYVWYDYWGQGTQVTVSS | low polyreactivity
19 | QVQLVESGGGLVQAGGSLRLSCAASGSTSIEYGMGWYRQAPGKERELVATISIGSSTNYADSVKGRFTISRDNAKNTVYLQMNSLKPEDTAVYYCAADAYLDYYTGYYYQEYDSWGQGTQVTVSS | low polyreactivity
20 | QVQLVESGGGLVQAGGSLRLSCAASGIIFSYNAMGWYRQAPGKERELVAANNSSGGSTNYADSVKGRFTISRDNAKNTVYLQMNSLKPEDTAVYYCAARDATYYGVWRYYGIDDYWGQGTQVTVSS | low polyreactivity
21 | QVQLVESGGGLVQAGGSLRLSCAASGRTFWRNAMGWYRQAPGKERELVAAISRGGSTKYADSVKGRFTISRDNAKNTVYLQMNSLKPEDTAVYYCAAATPGRYGYWGQGTQVTVSS | high polyreactivity
22 | QVQLVESGGGLVQAGGSLRLTCAASGRIFYPYPMGWYRQAPGKERELVAAIDKGGGSTYYADSVKGRFSISRDNAKNTVYLQMNSLKPEDTAVFYCAAGWEYPYDYWGQGTQVTVSS | low polyreactivity

Row | Sequence | polyreactivity (PSR sort gate)
23 | QVQLVESGGGLVQAGGSLRLSCAASGSIFQRNTIGWYIQAPGKERELVAAISRSGGSTYYADSVKGLFTISRDNAKITVYLQMKSLKPEDTEVYYCAVSGGTSRRYYYWGQGTKVTVSS | high polyreactivity
24 | QVQLVESGGGLVQAGGSLRLSCAASGLTFSRYAKGRYRQAPGKERELVAAISSSGTRTYYADSVKGRFTISRDNAKITVYLQMNSLKPEDTAVYYCAARSGGSGGTYGYWGHGTQVTVSS | high polyreactivity
25 | QVQLVESGGGLVQAGGSLRLSCAASGFTFGVYAMGWYRQAPGKERELVAAISTTVGSTYYADSVKGRFTISRDNAKNTVYLQMNSLKPEDTAVYYCNADGYPDVGAGTYGYWGQGTQVTVSS | low polyreactivity
26 | QVQLVESGGGLVQAGGSLRLICAASASIFQPYAMGWYRQAPGKERELVAAISKSGGNTYYADSVKGRFSSSRDYAKNTVYLQMNRLKPEVSAVYYCAALDYWGQGTQVTLSS | low polyreactivity
27 | QVQLVDSCGGLVQAGGSLRLSCHASGLTFFANAMGWYRQEHGKERELVAAITRRGGSTYYADSVKGRFTNSRDNAKNTVYLQMNSLKPEDTAVYYCAAEPRSVPAQYRSGDYWGQGTQVTVSS | high polyreactivity
28 | QVQLVESGGGLVQAGGSLRLSCAASGSTLRPYGMGWYRQAPGKERELVATIRSSSGRTYYADSVKGRFTISRDNAKTTVYLQMTSLKPEDTAVYYCARRYITNIKYDYWGQGTQVTVSS | high polyreactivity
29 | QVQLQESGGRLVQAGGSLRLSCAPSGDILEADDMGWYRQAPGKERELVASITDGGSTNCADSMKGRSTICRDNAKITVYLQMNSLKPEDTAVYYCAADAWDLYSDGQEYNYWGQGTQVTVSS | high polyreactivity
30 | QVQLVESGGGLVQAGGSLRLSCAASGSIFWPYAMGWYRQAPGKERELVAAISSSTGRTYYADSVKGRFTLSRDNEKNTVYLQMNSLKPEDTAVDYCAADIGTTSYRYYYWGQGTQVTVSS | high polyreactivity
31 | QVQLVESGGGLVQAGGSLRLSCAASGSTFLHYAMGWYRQAPGKEREFTYYADSVKGRFTISRDNAKNTVYLHMNSLNPEDTAVYYCNAGPYWSPYGDDFGYWGQGTQVTVSS | low polyreactivity
32 | QVQLVESGGGLVQAGGSLRLSCAASGYIFLRNAMGWYRQAPGKERELVAAIRRTGGSTYYADSVKGRFTISRDNAKHTVYLQMNSLKPEDTAVYYCAKRSYTGYESWGQGTQVTVSS | low polyreactivity
33 | QVQLVESAGGLVQAGGSLRLSCAASGYIFVPYAMGWYRQAPGKERELVASITWSGGSTYYADSVKGRFTISRDNAKNTVYLQMNSLKPEDTAVYYCAAANYTYASRWYDYWGQGTQVTVSS | low polyreactivity
34 | QVQLVESGGGLVQAGGSLRLSCAASGRTFKPNTMGWYRQAPGKERELVAAITSSGGSTYYADSVKGRFTISRDNAKNTVYLQMNSLKPEDTAVYYCAARGGAPYRIFKDDYWGQGTQVTVSS | high polyreactivity
35 | QVQLVESGGGLVQAGGSLRLSCAASGITFGYYAMGWYRQAPGKERELVAAISRTGSTTYYADSVKGRFTISRDNAKNTVYLQMNRLKPEDTAVYYCAARRWGTNGGGSPMYYWGQGTQVTVSS | high polyreactivity
36 | QVQLVESGGGLVQAGGSLRLSCAASGRTYYWNAMGWYRQAPGKEREFVAAITNTAGSTYYADSVKGRFTISRDNAKNTVYLQMNSLKPEDTAVYYCAKSGNAGYRTYLRDYWGQGTQVTVSS | low polyreactivity
37 | QLQLVESGGGLVQAGGSLRLSCAASGRIFYVNAMGWYRQAPGKERELVASITDGSSTYYADSVKGRFTISRDNAKNTVYLQMNILKPEDTAVYYCAVRAAYWGAHYYYWGQGTQVTVSS | high polyreactivity
38 | QVQLVESGGGLVQAGGSLRLSCAASGNNFRYNAMVWYRQAPGKERELVAAISSVGTTNYADSVKGRFTISRDNAKNTVYLQMNSLKPEDTAVYYCAAVDYQGGYWYDYWGQGTQVTVSS | low polyreactivity
39 | QDQLVESGGGLVQAGVSLRISCAASGYIFGFYARGWYRQAPGIERELVAAISKSGGNTYYADSVKGRFTISRDNANNTVSLQMNSLKPEDTAVYYCAADSYRYKYNYWGQGTQVTGSS | high polyreactivity
40 | QVQLVESGGGLVQAGGSLRLSCAASGSTFYSYAMGWSRQAPGKERELVAAITRGGRTYYADSVKGRFTISRDNAKNTVYLQMNSLKPEDTAVYYCNVVTKFTGRGYDYWGQGTQVTVSS | high polyreactivity
41 | QVQLVESGGGLVQAGGSLRLSCAASGFTFYYYAKGWYRQAPGKERELVAAINKKGGSTYADSVKGRFTISRDNAKNSVYLQLNSLKPEDTAVYYCYAVLTYTGVGYESWGQGTQVTVSS | high polyreactivity
42 | QVQLVESGGGLVQAGGSIRLSCAASGITFAWNAMGWYRQAPGKERELVAAITKRGGSTYYADSVKGRFTISRDNAKNTVYLQMNSLKPEYTAFYYCAARGYISRYDARANAVQGNYWGQGTQVTVSS | high polyreactivity
43 | QVQLVESGGGLVQAGGSLRLSCAASGSTFPVNAMGWYRQAPGKERELVARIRGSGGSTYYADSVKGRFTISRDNAKNTVYLQINSLKPEDTAVYYCAARYIGYSSYKYDYWGQGTQVTVSS | high polyreactivity
